Measurements taken from patent US20210388087A1 (Chugai, published 2021).

T1: Human CD3eg linker (human)
T1 construct: Single chain: epsilon and gamma subunits of human CD3 joined by a 29-mer linker, Flag-tag at the C-terminus; also called recombinant human CD3
T1 chain: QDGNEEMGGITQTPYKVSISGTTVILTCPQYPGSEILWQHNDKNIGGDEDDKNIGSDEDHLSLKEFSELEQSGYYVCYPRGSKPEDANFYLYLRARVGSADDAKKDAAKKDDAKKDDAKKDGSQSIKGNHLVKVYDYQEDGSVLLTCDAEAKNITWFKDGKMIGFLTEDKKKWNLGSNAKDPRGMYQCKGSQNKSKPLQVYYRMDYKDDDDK


Target: T1, Human CD3eg linker
Test: Biacore SPR, vs template H183/L072

Binder	fold change of affinity [fold]
H183/L072 VH A57Y (antibody, name in Kabat numbering, V domains shown) VH: QVQLVESGGGLVQPGRSLRLSCAASGFTFSNAWMHWVRQAPGKGLEWVAQIKDKGNAYAYYYAPSVKGRFTISRDDSKNSIYLQMNSLKTEDTAVYYCHYVHYASASTVLPAFGVDAWGQGTTVTVSS VL: DIVMTQSPLSLPVTPGEPASISCQASQELVHMNRNTYLHWYQQKPGQAPRLLIYKVSNRFPGVPDRFSGSGSGTDFTLKISRVEAEDVGVYYCAQGTSVPFTFGQGTKLEIK	0.4
H183/L072 VH A60L (antibody, name in Kabat numbering, V domains shown) VH: QVQLVESGGGLVQPGRSLRLSCAASGFTFSNAWMHWVRQAPGKGLEWVAQIKDKGNAYAAYYLPSVKGRFTISRDDSKNSIYLQMNSLKTEDTAVYYCHYVHYASASTVLPAFGVDAWGQGTTVTVSS VL: DIVMTQSPLSLPVTPGEPASISCQASQELVHMNRNTYLHWYQQKPGQAPRLLIYKVSNRFPGVPDRFSGSGSGTDFTLKISRVEAEDVGVYYCAQGTSVPFTFGQGTKLEIK	1.2
H183/L072 VH A60P (antibody, name in Kabat numbering, V domains shown) VH: QVQLVESGGGLVQPGRSLRLSCAASGFTFSNAWMHWVRQAPGKGLEWVAQIKDKGNAYAAYYPPSVKGRFTISRDDSKNSIYLQMNSLKTEDTAVYYCHYVHYASASTVLPAFGVDAWGQGTTVTVSS VL: DIVMTQSPLSLPVTPGEPASISCQASQELVHMNRNTYLHWYQQKPGQAPRLLIYKVSNRFPGVPDRFSGSGSGTDFTLKISRVEAEDVGVYYCAQGTSVPFTFGQGTKLEIK	0.5
H183/L072 VH A60D (antibody, name in Kabat numbering, V domains shown) VH: QVQLVESGGGLVQPGRSLRLSCAASGFTFSNAWMHWVRQAPGKGLEWVAQIKDKGNAYAAYYDPSVKGRFTISRDDSKNSIYLQMNSLKTEDTAVYYCHYVHYASASTVLPAFGVDAWGQGTTVTVSS VL: DIVMTQSPLSLPVTPGEPASISCQASQELVHMNRNTYLHWYQQKPGQAPRLLIYKVSNRFPGVPDRFSGSGSGTDFTLKISRVEAEDVGVYYCAQGTSVPFTFGQGTKLEIK	1.3
H183/L072 VH A60G (antibody, name in Kabat numbering, V domains shown) VH: QVQLVESGGGLVQPGRSLRLSCAASGFTFSNAWMHWVRQAPGKGLEWVAQIKDKGNAYAAYYGPSVKGRFTISRDDSKNSIYLQMNSLKTEDTAVYYCHYVHYASASTVLPAFGVDAWGQGTTVTVSS VL: DIVMTQSPLSLPVTPGEPASISCQASQELVHMNRNTYLHWYQQKPGQAPRLLIYKVSNRFPGVPDRFSGSGSGTDFTLKISRVEAEDVGVYYCAQGTSVPFTFGQGTKLEIK	1.9
H183/L072 VH A57T (antibody, name in Kabat numbering, V domains shown) VH: QVQLVESGGGLVQPGRSLRLSCAASGFTFSNAWMHWVRQAPGKGLEWVAQIKDKGNAYATYYAPSVKGRFTISRDDSKNSIYLQMNSLKTEDTAVYYCHYVHYASASTVLPAFGVDAWGQGTTVTVSS VL: DIVMTQSPLSLPVTPGEPASISCQASQELVHMNRNTYLHWYQQKPGQAPRLLIYKVSNRFPGVPDRFSGSGSGTDFTLKISRVEAEDVGVYYCAQGTSVPFTFGQGTKLEIK	1.3
H183/L072 VH A60E (antibody, name in Kabat numbering, V domains shown) VH: QVQLVESGGGLVQPGRSLRLSCAASGFTFSNAWMHWVRQAPGKGLEWVAQIKDKGNAYAAYYEPSVKGRFTISRDDSKNSIYLQMNSLKTEDTAVYYCHYVHYASASTVLPAFGVDAWGQGTTVTVSS VL: DIVMTQSPLSLPVTPGEPASISCQASQELVHMNRNTYLHWYQQKPGQAPRLLIYKVSNRFPGVPDRFSGSGSGTDFTLKISRVEAEDVGVYYCAQGTSVPFTFGQGTKLEIK	1.1
H183/L072 VH A60M (antibody, name in Kabat numbering, V domains shown) VH: QVQLVESGGGLVQPGRSLRLSCAASGFTFSNAWMHWVRQAPGKGLEWVAQIKDKGNAYAAYYMPSVKGRFTISRDDSKNSIYLQMNSLKTEDTAVYYCHYVHYASASTVLPAFGVDAWGQGTTVTVSS VL: DIVMTQSPLSLPVTPGEPASISCQASQELVHMNRNTYLHWYQQKPGQAPRLLIYKVSNRFPGVPDRFSGSGSGTDFTLKISRVEAEDVGVYYCAQGTSVPFTFGQGTKLEIK	1
H183/L072 VH A60T (antibody, name in Kabat numbering, V domains shown) VH: QVQLVESGGGLVQPGRSLRLSCAASGFTFSNAWMHWVRQAPGKGLEWVAQIKDKGNAYAAYYTPSVKGRFTISRDDSKNSIYLQMNSLKTEDTAVYYCHYVHYASASTVLPAFGVDAWGQGTTVTVSS VL: DIVMTQSPLSLPVTPGEPASISCQASQELVHMNRNTYLHWYQQKPGQAPRLLIYKVSNRFPGVPDRFSGSGSGTDFTLKISRVEAEDVGVYYCAQGTSVPFTFGQGTKLEIK	0.9

Next, values leading:

fold change of affinity [fold]	Binder
1.1	H183/L072 VH A57S (antibody, name in Kabat numbering, V domains shown) VH: QVQLVESGGGLVQPGRSLRLSCAASGFTFSNAWMHWVRQAPGKGLEWVAQIKDKGNAYASYYAPSVKGRFTISRDDSKNSIYLQMNSLKTEDTAVYYCHYVHYASASTVLPAFGVDAWGQGTTVTVSS VL: DIVMTQSPLSLPVTPGEPASISCQASQELVHMNRNTYLHWYQQKPGQAPRLLIYKVSNRFPGVPDRFSGSGSGTDFTLKISRVEAEDVGVYYCAQGTSVPFTFGQGTKLEIK
1	H183/L072 VH A60N (antibody, name in Kabat numbering, V domains shown) VH: QVQLVESGGGLVQPGRSLRLSCAASGFTFSNAWMHWVRQAPGKGLEWVAQIKDKGNAYAAYYNPSVKGRFTISRDDSKNSIYLQMNSLKTEDTAVYYCHYVHYASASTVLPAFGVDAWGQGTTVTVSS VL: DIVMTQSPLSLPVTPGEPASISCQASQELVHMNRNTYLHWYQQKPGQAPRLLIYKVSNRFPGVPDRFSGSGSGTDFTLKISRVEAEDVGVYYCAQGTSVPFTFGQGTKLEIK
1.1	H183/L072 VH A60Q (antibody, name in Kabat numbering, V domains shown) VH: QVQLVESGGGLVQPGRSLRLSCAASGFTFSNAWMHWVRQAPGKGLEWVAQIKDKGNAYAAYYQPSVKGRFTISRDDSKNSIYLQMNSLKTEDTAVYYCHYVHYASASTVLPAFGVDAWGQGTTVTVSS VL: DIVMTQSPLSLPVTPGEPASISCQASQELVHMNRNTYLHWYQQKPGQAPRLLIYKVSNRFPGVPDRFSGSGSGTDFTLKISRVEAEDVGVYYCAQGTSVPFTFGQGTKLEIK
1	H183/L072 VH A60R (antibody, name in Kabat numbering, V domains shown) VH: QVQLVESGGGLVQPGRSLRLSCAASGFTFSNAWMHWVRQAPGKGLEWVAQIKDKGNAYAAYYRPSVKGRFTISRDDSKNSIYLQMNSLKTEDTAVYYCHYVHYASASTVLPAFGVDAWGQGTTVTVSS VL: DIVMTQSPLSLPVTPGEPASISCQASQELVHMNRNTYLHWYQQKPGQAPRLLIYKVSNRFPGVPDRFSGSGSGTDFTLKISRVEAEDVGVYYCAQGTSVPFTFGQGTKLEIK
0.7	H183/L072 VH A60F (antibody, name in Kabat numbering, V domains shown) VH: QVQLVESGGGLVQPGRSLRLSCAASGFTFSNAWMHWVRQAPGKGLEWVAQIKDKGNAYAAYYFPSVKGRFTISRDDSKNSIYLQMNSLKTEDTAVYYCHYVHYASASTVLPAFGVDAWGQGTTVTVSS VL: DIVMTQSPLSLPVTPGEPASISCQASQELVHMNRNTYLHWYQQKPGQAPRLLIYKVSNRFPGVPDRFSGSGSGTDFTLKISRVEAEDVGVYYCAQGTSVPFTFGQGTKLEIK
1.1	H183/L072 VH A60H (antibody, name in Kabat numbering, V domains shown) VH: QVQLVESGGGLVQPGRSLRLSCAASGFTFSNAWMHWVRQAPGKGLEWVAQIKDKGNAYAAYYHPSVKGRFTISRDDSKNSIYLQMNSLKTEDTAVYYCHYVHYASASTVLPAFGVDAWGQGTTVTVSS VL: DIVMTQSPLSLPVTPGEPASISCQASQELVHMNRNTYLHWYQQKPGQAPRLLIYKVSNRFPGVPDRFSGSGSGTDFTLKISRVEAEDVGVYYCAQGTSVPFTFGQGTKLEIK
0.6	H183/L072 VH A60I (antibody, name in Kabat numbering, V domains shown) VH: QVQLVESGGGLVQPGRSLRLSCAASGFTFSNAWMHWVRQAPGKGLEWVAQIKDKGNAYAAYYIPSVKGRFTISRDDSKNSIYLQMNSLKTEDTAVYYCHYVHYASASTVLPAFGVDAWGQGTTVTVSS VL: DIVMTQSPLSLPVTPGEPASISCQASQELVHMNRNTYLHWYQQKPGQAPRLLIYKVSNRFPGVPDRFSGSGSGTDFTLKISRVEAEDVGVYYCAQGTSVPFTFGQGTKLEIK
0.9	H183/L072 VH A57V (antibody, name in Kabat numbering, V domains shown) VH: QVQLVESGGGLVQPGRSLRLSCAASGFTFSNAWMHWVRQAPGKGLEWVAQIKDKGNAYAVYYAPSVKGRFTISRDDSKNSIYLQMNSLKTEDTAVYYCHYVHYASASTVLPAFGVDAWGQGTTVTVSS VL: DIVMTQSPLSLPVTPGEPASISCQASQELVHMNRNTYLHWYQQKPGQAPRLLIYKVSNRFPGVPDRFSGSGSGTDFTLKISRVEAEDVGVYYCAQGTSVPFTFGQGTKLEIK
0.4	H183/L072 VH A57W (antibody, name in Kabat numbering, V domains shown) VH: QVQLVESGGGLVQPGRSLRLSCAASGFTFSNAWMHWVRQAPGKGLEWVAQIKDKGNAYAWYYAPSVKGRFTISRDDSKNSIYLQMNSLKTEDTAVYYCHYVHYASASTVLPAFGVDAWGQGTTVTVSS VL: DIVMTQSPLSLPVTPGEPASISCQASQELVHMNRNTYLHWYQQKPGQAPRLLIYKVSNRFPGVPDRFSGSGSGTDFTLKISRVEAEDVGVYYCAQGTSVPFTFGQGTKLEIK
1.3	H183/L072 VH A60S (antibody, name in Kabat numbering, V domains shown) VH: QVQLVESGGGLVQPGRSLRLSCAASGFTFSNAWMHWVRQAPGKGLEWVAQIKDKGNAYAAYYSPSVKGRFTISRDDSKNSIYLQMNSLKTEDTAVYYCHYVHYASASTVLPAFGVDAWGQGTTVTVSS VL: DIVMTQSPLSLPVTPGEPASISCQASQELVHMNRNTYLHWYQQKPGQAPRLLIYKVSNRFPGVPDRFSGSGSGTDFTLKISRVEAEDVGVYYCAQGTSVPFTFGQGTKLEIK
0.9	H183/L072 VH A60K (antibody, name in Kabat numbering, V domains shown) VH: QVQLVESGGGLVQPGRSLRLSCAASGFTFSNAWMHWVRQAPGKGLEWVAQIKDKGNAYAAYYKPSVKGRFTISRDDSKNSIYLQMNSLKTEDTAVYYCHYVHYASASTVLPAFGVDAWGQGTTVTVSS VL: DIVMTQSPLSLPVTPGEPASISCQASQELVHMNRNTYLHWYQQKPGQAPRLLIYKVSNRFPGVPDRFSGSGSGTDFTLKISRVEAEDVGVYYCAQGTSVPFTFGQGTKLEIK
